Measured values from article doi:10.1101/746180 (bioRxiv, 2020).
Ends that are not written are not given here.

Experiments:
[1] = target: His-MBTD1 (UniProt Q05BQ5 1-628); assay: ITC
[2] = target: MBTD1(140-562)-(GSA)6-EPC1(644-672) fusion protein (UniProt Q05BQ5 140-562; Q9H2F5 644-672); assay: ITC

His-MBTD1, sequence (Q05BQ5 whole entry, the tested form may be a part): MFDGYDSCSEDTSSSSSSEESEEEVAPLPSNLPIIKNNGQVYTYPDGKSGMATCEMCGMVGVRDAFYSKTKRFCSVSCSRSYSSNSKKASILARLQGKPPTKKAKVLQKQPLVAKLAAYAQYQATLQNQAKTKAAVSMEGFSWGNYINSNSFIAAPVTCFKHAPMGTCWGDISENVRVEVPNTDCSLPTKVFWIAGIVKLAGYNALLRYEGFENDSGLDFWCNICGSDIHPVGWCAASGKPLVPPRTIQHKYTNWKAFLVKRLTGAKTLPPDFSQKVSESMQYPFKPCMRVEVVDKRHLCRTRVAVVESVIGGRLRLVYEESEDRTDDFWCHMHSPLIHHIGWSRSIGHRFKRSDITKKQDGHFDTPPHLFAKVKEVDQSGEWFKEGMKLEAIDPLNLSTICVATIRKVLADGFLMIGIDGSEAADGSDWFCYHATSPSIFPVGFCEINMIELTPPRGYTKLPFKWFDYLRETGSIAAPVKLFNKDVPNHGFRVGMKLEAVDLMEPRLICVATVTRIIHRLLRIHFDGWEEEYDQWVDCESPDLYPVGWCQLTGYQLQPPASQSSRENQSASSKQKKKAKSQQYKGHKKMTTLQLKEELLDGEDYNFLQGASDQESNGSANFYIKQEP

Kd [1] | stoichiometry N [1] | binding result [2] | Binder
~67 nM | ~1.3 | – | QGFVSKTLDSASAQFAASALVTSEQLMGF (domain or fragment, UniProt Q9H2F5 644-672, looked up) [GST-EPC1(644-672)]
– | – | binds | AKRHRK(Me)VLRDN [H4K20me1 peptide]
